Numbered stars: 1 amine (or outer) side, 2 acyl side, 3 side chain; on linkers, the order of the positions; unused ones are H or OH. Square brackets hold non-standard residues; d marks the D form. Side chains are listed from the residue outwards. Ends that are not written are not given here. * marks the point of attachment. C20 diacid = O=C(O)CCCCCCCCCCCCCCCCCCC(=O)*; γGlu = O=C(O)[C@H](CCC(=O)[*:2])N[*:1]; αMeP = C[C@@]1(C(=O)O)CCCN1; AEEA = NCCOCCOCC(=O)O
T1: human gastric inhibitory peptide receptor (GIPR) (human, UniProt P48546 22-466)
T1 sequence (looked up): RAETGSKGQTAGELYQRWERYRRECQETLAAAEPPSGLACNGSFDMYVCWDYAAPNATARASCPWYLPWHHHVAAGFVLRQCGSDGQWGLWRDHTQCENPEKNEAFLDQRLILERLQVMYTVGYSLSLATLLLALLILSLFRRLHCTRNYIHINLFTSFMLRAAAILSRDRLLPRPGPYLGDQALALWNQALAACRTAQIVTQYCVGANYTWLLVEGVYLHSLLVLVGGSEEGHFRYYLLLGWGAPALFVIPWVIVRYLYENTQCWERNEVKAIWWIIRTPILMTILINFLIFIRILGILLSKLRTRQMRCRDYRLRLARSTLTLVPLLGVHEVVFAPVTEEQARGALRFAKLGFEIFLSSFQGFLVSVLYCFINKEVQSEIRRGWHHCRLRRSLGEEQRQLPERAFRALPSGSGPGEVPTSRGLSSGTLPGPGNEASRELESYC


How the values were obtained:
[1] = molecular target: T1, human gastric inhibitory peptide …; assay: cell-based or functional assay
[2] = molecular target: human GLP-1 receptor (GLP-1R) (human, UniProt P43220 24-463); assay: cell-based or functional assay

Binder	hGIPR cAMP EC50 ratio [1]	hGIPR cAMP Rel EC50 [1] [nM]	hGLP1R cAMP EC50 ratio [2]	hGLP1R cAMP Rel EC50 [2] [nM]
Y[αMeP]EGTFTSDYSILLDRK([AEEA-AEEA-γGlu-C20 diacid])AQQAFIEYLIEGGPSSGAPPPS-NH2 (N-terminus assumed; SMILES CC[C@H](C)[C@H](NC(=O)[C@H](CC(C)C)NC(=O)[C@H](Cc1ccc(O)cc1)NC(=O)[C@H](CCC(=O)O)NC(=O)[C@@H](NC(=O)[C@H](Cc1ccccc1)NC(=O)[C@H](C)NC(=O)[C@H](CCC(N)=O)NC(=O)[C@H](CCC(N)=O)NC(=O)[C@H](C)NC(=O)[C@H](CCCCNC(=O)COCCOCCNC(=O)COCCOCCNC(=O)CC[C@H](NC(=O)CCCCCCCCCCCCCCCCCCC(=O)O)C(=O)O)NC(=O)[C@H](CCCNC(=N)N)NC(=O)[C@H](CC(=O)O)NC(=O)[C@H](CC(C)C)NC(=O)[C@H](CC(C)C)NC(=O)[C@@H](NC(=O)[C@H](CO)NC(=O)[C@H](Cc1ccc(O)cc1)NC(=O)[C@H](CC(=O)O)NC(=O)[C@H](CO)NC(=O)[C@@H](NC(=O)[C@H](Cc1ccccc1)NC(=O)[C@@H](NC(=O)CNC(=O)[C@H](CCC(=O)O)NC(=O)[C@]1(C)CCCN1C(=O)[C@@H](N)Cc1ccc(O)cc1)[C@@H](C)O)[C@@H](C)O)[C@@H](C)CC)[C@@H](C)CC)C(=O)N[C@@H](CCC(=O)O)C(=O)NCC(=O)NCC(=O)N1CCC[C@H]1C(=O)N[C@@H](CO)C(=O)N[C@@H](CO)C(=O)NCC(=O)N[C@@H](C)C(=O)N1CCC[C@H]1C(=O)N1CCC[C@H]1C(=O)N1CCC[C@H]1C(=O)N[C@@H](CO)C(N)=O) [Example 195]	0.936	0.193	0.602	0.0966
Y[αMeP]EGTFTSDYSILLDEK([AEEA-AEEA-γGlu-C20 diacid])AQQAFIEYLIEGGPSSGAPPPS-NH2 (N-terminus assumed; SMILES CC[C@H](C)[C@H](NC(=O)[C@H](CC(C)C)NC(=O)[C@H](Cc1ccc(O)cc1)NC(=O)[C@H](CCC(=O)O)NC(=O)[C@@H](NC(=O)[C@H](Cc1ccccc1)NC(=O)[C@H](C)NC(=O)[C@H](CCC(N)=O)NC(=O)[C@H](CCC(N)=O)NC(=O)[C@H](C)NC(=O)[C@H](CCCCNC(=O)COCCOCCNC(=O)COCCOCCNC(=O)CC[C@H](NC(=O)CCCCCCCCCCCCCCCCCCC(=O)O)C(=O)O)NC(=O)[C@H](CCC(=O)O)NC(=O)[C@H](CC(=O)O)NC(=O)[C@H](CC(C)C)NC(=O)[C@H](CC(C)C)NC(=O)[C@@H](NC(=O)[C@H](CO)NC(=O)[C@H](Cc1ccc(O)cc1)NC(=O)[C@H](CC(=O)O)NC(=O)[C@H](CO)NC(=O)[C@@H](NC(=O)[C@H](Cc1ccccc1)NC(=O)[C@@H](NC(=O)CNC(=O)[C@H](CCC(=O)O)NC(=O)[C@]1(C)CCCN1C(=O)[C@@H](N)Cc1ccc(O)cc1)[C@@H](C)O)[C@@H](C)O)[C@@H](C)CC)[C@@H](C)CC)C(=O)N[C@@H](CCC(=O)O)C(=O)NCC(=O)NCC(=O)N1CCC[C@H]1C(=O)N[C@@H](CO)C(=O)N[C@@H](CO)C(=O)NCC(=O)N[C@@H](C)C(=O)N1CCC[C@H]1C(=O)N1CCC[C@H]1C(=O)N1CCC[C@H]1C(=O)N[C@@H](CO)C(N)=O) [Example 193]	0.538	0.336	0.359	0.162
YXEGTXTSDXSIXLDEKAQXEFIXYLIEGGPSSGAPPPS (Y-Aib-EGT-αMeF(2F)-TSD-(D-His)-SI-αMeF-LDEK((2-[2-(2-Amino-ethoxy)-ethoxy]-acetyl)2-(γ-Glu)-CO-(CH2)18-CO2H)AQ-Aib-EFI-(D-Glu)-YLIEGGPSSGAPPPS-NH2) [Example 185]	0.185	0.632	0.00739	7.16
YXEGTXTSDQSIXLDEKAQXEFIXYLIEGGPSSGAPPPS (Y-Aib-EGT-αMeF(2F)-TSDQSI-αMeF-LDEK((2-[2-(2-Amino-ethoxy)-ethoxy]-acetyl)2-(γ-Glu)-CO-(CH2)18-CO2H)AQ-Aib-EFI-(D-Glu)-YLIEGGPSSGAPPPS-NH2) [Example 187]	4.61	0.0371	0.702	0.0577
YXEGTXTSDXSIXLDEKAQXEFIXYLIEGGPSSGAPPPS (Y-Aib-EGT-αMeF(2F)-TSD-4Pal-SI-αMeF-LDEK((2-[2-(2-Amino-ethoxy)-ethoxy]-acetyl)2-(γ-Glu)-CO-(CH2)18-CO2H)AQ-Aib-EFI-Aib-YLIEGGPSSGAPPPS-NH2) [Example 189]	2.41	0.0775	0.668	0.0608
YXEGTXTSDASIXLDEKAQXEFIXYLIEGGPSSGAPPPS (Y-Aib-EGT-αMeF(2F)-TSDASI-αMeF-LDEK((2-[2-(2-Amino-ethoxy)-ethoxy]-acetyl)2-(γ-Glu)-CO-(CH2)18-CO2H)AQ-Aib-EFI-(D-Glu)-YLIEGGPSSGAPPPS-NH2) [Example 192]	2.83	0.0615	1.73	0.0289
HXEGTXTSDXSIXLDEKAQXEFIXYLIEGGPSSGAPPPS (H-Aib-EGT-αMeF(2F)-TSD-3Pal-SI-αMeF-LDEK((2-[2-(2-Amino-ethoxy)-ethoxy]-acetyl)2-(γ-Glu)-CO-(CH2)18-CO2H)AQ-Aib-EFI-(D-Glu)-YLIEGGPSSGAPPPS-NH2) [Example 190]	0.158	0.738	2.2	0.0241
YXEGTXTSDVSIXLDEKAQXEFIXYLIEGGPSSGAPPPS (Y-Aib-EGT-αMeF(2F)-TSDVSI-αMeF-LDEK((2-[2-(2-Amino-ethoxy)-ethoxy]-acetyl)2-(γ-Glu)-CO-(CH2)18-CO2H)AQ-Aib-EFI-(D-Glu)-YLIEGGPSSGAPPPS-NH2) [Example 191]	2.53	0.0645	1.6	0.0356
YXEGTXTSDXSIXLDEKAQXEFIXYLIEGGPSSGAPPPS (Y-Aib-EGT-αMeF(2F)-TSD-3Pal-SI-αMeF-LDEK((2-[2-(2-Amino-ethoxy)-ethoxy]-acetyl)2-(γ-Glu)-CO-(CH2)18-CO2H)AQ-Aib-EFI-Aib-YLIEGGPSSGAPPPS-NH2) [Example 188]	0.969	0.121	0.408	0.13
Y[αMeP]EGTFTSDYSILLDRK([AEEA-AEEA-γGlu-C20 diacid])AQHAFIEYLIEGGPSSGAPPPS-NH2 (N-terminus assumed; SMILES CC[C@H](C)[C@H](NC(=O)[C@H](CC(C)C)NC(=O)[C@H](Cc1ccc(O)cc1)NC(=O)[C@H](CCC(=O)O)NC(=O)[C@@H](NC(=O)[C@H](Cc1ccccc1)NC(=O)[C@H](C)NC(=O)[C@H](Cc1c[nH]cn1)NC(=O)[C@H](CCC(N)=O)NC(=O)[C@H](C)NC(=O)[C@H](CCCCNC(=O)COCCOCCNC(=O)COCCOCCNC(=O)CC[C@H](NC(=O)CCCCCCCCCCCCCCCCCCC(=O)O)C(=O)O)NC(=O)[C@H](CCCNC(=N)N)NC(=O)[C@H](CC(=O)O)NC(=O)[C@H](CC(C)C)NC(=O)[C@H](CC(C)C)NC(=O)[C@@H](NC(=O)[C@H](CO)NC(=O)[C@H](Cc1ccc(O)cc1)NC(=O)[C@H](CC(=O)O)NC(=O)[C@H](CO)NC(=O)[C@@H](NC(=O)[C@H](Cc1ccccc1)NC(=O)[C@@H](NC(=O)CNC(=O)[C@H](CCC(=O)O)NC(=O)[C@]1(C)CCCN1C(=O)[C@@H](N)Cc1ccc(O)cc1)[C@@H](C)O)[C@@H](C)O)[C@@H](C)CC)[C@@H](C)CC)C(=O)N[C@@H](CCC(=O)O)C(=O)NCC(=O)NCC(=O)N1CCC[C@H]1C(=O)N[C@@H](CO)C(=O)N[C@@H](CO)C(=O)NCC(=O)N[C@@H](C)C(=O)N1CCC[C@H]1C(=O)N1CCC[C@H]1C(=O)N1CCC[C@H]1C(=O)N[C@@H](CO)C(N)=O) [Example 196]	0.653	0.277	0.332	0.175
Y[αMeP]EGTFTSDYSILLDEK([AEEA-AEEA-γGlu-C20 diacid])AQHAFIEYLIEGGPSSGAPPPS-NH2 (N-terminus assumed; SMILES CC[C@H](C)[C@H](NC(=O)[C@H](CC(C)C)NC(=O)[C@H](Cc1ccc(O)cc1)NC(=O)[C@H](CCC(=O)O)NC(=O)[C@@H](NC(=O)[C@H](Cc1ccccc1)NC(=O)[C@H](C)NC(=O)[C@H](Cc1c[nH]cn1)NC(=O)[C@H](CCC(N)=O)NC(=O)[C@H](C)NC(=O)[C@H](CCCCNC(=O)COCCOCCNC(=O)COCCOCCNC(=O)CC[C@H](NC(=O)CCCCCCCCCCCCCCCCCCC(=O)O)C(=O)O)NC(=O)[C@H](CCC(=O)O)NC(=O)[C@H](CC(=O)O)NC(=O)[C@H](CC(C)C)NC(=O)[C@H](CC(C)C)NC(=O)[C@@H](NC(=O)[C@H](CO)NC(=O)[C@H](Cc1ccc(O)cc1)NC(=O)[C@H](CC(=O)O)NC(=O)[C@H](CO)NC(=O)[C@@H](NC(=O)[C@H](Cc1ccccc1)NC(=O)[C@@H](NC(=O)CNC(=O)[C@H](CCC(=O)O)NC(=O)[C@]1(C)CCCN1C(=O)[C@@H](N)Cc1ccc(O)cc1)[C@@H](C)O)[C@@H](C)O)[C@@H](C)CC)[C@@H](C)CC)C(=O)N[C@@H](CCC(=O)O)C(=O)NCC(=O)NCC(=O)N1CCC[C@H]1C(=O)N[C@@H](CO)C(=O)N[C@@H](CO)C(=O)NCC(=O)N[C@@H](C)C(=O)N1CCC[C@H]1C(=O)N1CCC[C@H]1C(=O)N1CCC[C@H]1C(=O)N[C@@H](CO)C(N)=O) [Example 194]	0.427	0.423	0.205	0.284

— patent US20220048967A1 (published 2022)
